Experimental data published in patent US20140087995A1 (published 2014).
Numbered stars: 1 amine (or outer) side, 2 acyl side, 3 side chain; on linkers, the order of the positions; unused ones are H or OH. Bridge positions count the residues as written; N and C are the ends. * marks the point of attachment. C20 diacid = O=C(O)CCCCCCCCCCCCCCCCCCC(=O)*; γGlu = O=C(O)[C@H](CCC(=O)[*:2])N[*:1]

What was measured:
[1] = biological target: T1, human amylin receptor (amylin 3(a) receptor: human calcitonin receptor plus RAMP-3) (human, UniProt P30988 25-474; O60896 24-148, limits assumed); test: cell-based or functional assay
T1 sequence (looked up) 1: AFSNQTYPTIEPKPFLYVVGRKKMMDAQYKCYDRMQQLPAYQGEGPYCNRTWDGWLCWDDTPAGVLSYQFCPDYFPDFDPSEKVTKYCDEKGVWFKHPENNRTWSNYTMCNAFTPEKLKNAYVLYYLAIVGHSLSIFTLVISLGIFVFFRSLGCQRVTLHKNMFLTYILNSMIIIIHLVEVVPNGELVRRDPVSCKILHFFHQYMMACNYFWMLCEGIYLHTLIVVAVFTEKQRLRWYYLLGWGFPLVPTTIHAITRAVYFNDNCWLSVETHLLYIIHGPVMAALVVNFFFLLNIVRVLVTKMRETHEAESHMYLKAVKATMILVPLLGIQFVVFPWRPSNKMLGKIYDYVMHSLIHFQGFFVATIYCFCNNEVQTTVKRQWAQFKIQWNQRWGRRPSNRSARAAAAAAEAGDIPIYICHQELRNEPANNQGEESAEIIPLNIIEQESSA
T1 sequence (looked up) 2: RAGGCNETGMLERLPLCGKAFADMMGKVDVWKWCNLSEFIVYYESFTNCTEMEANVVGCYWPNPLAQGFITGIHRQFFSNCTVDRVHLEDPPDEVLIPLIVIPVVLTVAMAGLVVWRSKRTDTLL

[2] = biological target: T2, human calcitonin receptor (human, UniProt P30988 25-474); test: cell-based or functional assay
T2 sequence (looked up): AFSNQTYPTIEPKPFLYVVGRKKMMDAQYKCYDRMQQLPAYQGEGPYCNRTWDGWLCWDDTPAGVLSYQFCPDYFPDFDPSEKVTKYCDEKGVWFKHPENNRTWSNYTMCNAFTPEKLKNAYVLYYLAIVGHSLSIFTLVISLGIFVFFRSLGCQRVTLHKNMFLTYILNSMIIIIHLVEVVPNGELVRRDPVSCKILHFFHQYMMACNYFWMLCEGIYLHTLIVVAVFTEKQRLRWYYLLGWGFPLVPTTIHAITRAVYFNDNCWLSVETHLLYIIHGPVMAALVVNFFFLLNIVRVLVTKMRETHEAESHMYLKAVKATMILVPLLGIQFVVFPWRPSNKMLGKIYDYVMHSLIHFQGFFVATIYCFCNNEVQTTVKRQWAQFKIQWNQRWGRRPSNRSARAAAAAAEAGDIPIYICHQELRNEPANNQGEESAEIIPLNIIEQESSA

Binder	Ratio hCT/hAmylin funct. [1] [ratio]	hAmylin-R funct. EC50 [1] [pM]	hCTR funct. EC50 [2] [pM]
{C20 diacid-γGlu}-KCNTATCATQRLAEFLRHSSPNFGAIPSSTNVGSRTY-NH2 (disulfide 2-7; SMILES CC[C@H](C)[C@H](NC(=O)[C@H](C)NC(=O)CNC(=O)[C@H](Cc1ccccc1)NC(=O)[C@H](CC(N)=O)NC(=O)[C@@H]1CCCN1C(=O)[C@H](CO)NC(=O)[C@H](CO)NC(=O)[C@H](Cc1c[nH]cn1)NC(=O)[C@H](CCCNC(=N)N)NC(=O)[C@H](CC(C)C)NC(=O)[C@H](Cc1ccccc1)NC(=O)[C@H](CCC(=O)O)NC(=O)[C@H](C)NC(=O)[C@H](CC(C)C)NC(=O)[C@H](CCCNC(=N)N)NC(=O)[C@H](CCC(N)=O)NC(=O)[C@@H](NC(=O)[C@H](C)NC(=O)[C@@H]1CSSC[C@H](NC(=O)[C@H](CCCCN)NC(=O)CC[C@H](NC(=O)CCCCCCCCCCCCCCCCCCC(=O)O)C(=O)O)C(=O)N[C@@H](CC(N)=O)C(=O)N[C@@H]([C@@H](C)O)C(=O)N[C@@H](C)C(=O)N[C@@H]([C@@H](C)O)C(=O)N1)[C@@H](C)O)C(=O)N1CCC[C@H]1C(=O)N[C@@H](CO)C(=O)N[C@@H](CO)C(=O)N[C@H](C(=O)N[C@@H](CC(N)=O)C(=O)N[C@H](C(=O)NCC(=O)N[C@@H](CO)C(=O)N[C@@H](CCCNC(=N)N)C(=O)N[C@H](C(=O)N[C@@H](Cc1ccc(O)cc1)C(N)=O)[C@@H](C)O)C(C)C)[C@@H](C)O, Synthetic acylated analogue of human amylin; also called compound 16)	6.1	363	2220
KCNTATCATQRLAEFLRHSSPNFGAIPSSTNVGSNTY (C20 diacid-gGlu on the alpha amino group of the N-terminal residue; disulfide bridge Cys2-Cys7; C-terminal amide, Synthetic acylated analogue of human amylin; also called compound 9) [N^α1-[(4S)-4-carboxy-4-(19-carboxynonadecanoylamino)butanoyl]-[Glu14,Arg17,Pro21,Pro27]-h-amylin]	7.4	175	1290
{C20 diacid-γGlu}-KCNTATCATQRLAEFLRHSSPNFGAIPSSTPVGSNTY-NH2 (disulfide 2-7; SMILES CC[C@H](C)[C@H](NC(=O)[C@H](C)NC(=O)CNC(=O)[C@H](Cc1ccccc1)NC(=O)[C@H](CC(N)=O)NC(=O)[C@@H]1CCCN1C(=O)[C@H](CO)NC(=O)[C@H](CO)NC(=O)[C@H](Cc1c[nH]cn1)NC(=O)[C@H](CCCNC(=N)N)NC(=O)[C@H](CC(C)C)NC(=O)[C@H](Cc1ccccc1)NC(=O)[C@H](CCC(=O)O)NC(=O)[C@H](C)NC(=O)[C@H](CC(C)C)NC(=O)[C@H](CCCNC(=N)N)NC(=O)[C@H](CCC(N)=O)NC(=O)[C@@H](NC(=O)[C@H](C)NC(=O)[C@@H]1CSSC[C@H](NC(=O)[C@H](CCCCN)NC(=O)CC[C@H](NC(=O)CCCCCCCCCCCCCCCCCCC(=O)O)C(=O)O)C(=O)N[C@@H](CC(N)=O)C(=O)N[C@@H]([C@@H](C)O)C(=O)N[C@@H](C)C(=O)N[C@@H]([C@@H](C)O)C(=O)N1)[C@@H](C)O)C(=O)N1CCC[C@H]1C(=O)N[C@@H](CO)C(=O)N[C@@H](CO)C(=O)N[C@H](C(=O)N1CCC[C@H]1C(=O)N[C@H](C(=O)NCC(=O)N[C@@H](CO)C(=O)N[C@@H](CC(N)=O)C(=O)N[C@H](C(=O)N[C@@H](Cc1ccc(O)cc1)C(N)=O)[C@@H](C)O)C(C)C)[C@@H](C)O, Synthetic acylated analogue of human amylin; also called compound 31)	6.4	112	717
